# Test results taken from paper PMC6051341.
# How the values were obtained:
# [1] = target: ΔM-N L-selectin–GFP (human) (UniProt P14151); assay: FRET or BRET; FLIM measurement of FRET between GFP (donor, on L-selectin) and RFP (on the ERM protein); unchallenged THP-1 cells seeded onto poly-L-lysine-coated coverslips for 10 min at 37°C, fixed
# [2] = target: ΔM-N L-selectin–GFP (human) (UniProt P14151); assay: FRET or BRET; FLIM measurement of FRET; THP-1 cells perfused over TNF-activated HUVECs, fixed in 4% PFA at 25 min (late TEM); optical section above the endothelium (top, non-transmigrated uropods)
# [3] = target: ΔM-N L-selectin–GFP (human) (UniProt P14151); assay: FRET or BRET; FLIM measurement of FRET; THP-1 cells perfused over TNF-activated HUVECs, fixed in 4% PFA at 6 min (early TEM); optical section below the endothelium (base, transmigrated pseudopods)
# [4] = target: ΔM-N L-selectin–GFP (human) (UniProt P14151); assay: FRET or BRET; FLIM measurement of FRET; THP-1 cells perfused over TNF-activated HUVECs, fixed in 4% PFA at 25 min (late TEM); optical section below the endothelium (base, transmigrated pseudopods)
# [5] = target: ΔM-N L-selectin–GFP (human) (UniProt P14151); assay: FRET or BRET; FLIM measurement of FRET; THP-1 cells perfused over TNF-activated HUVECs, fixed in 4% PFA at 6 min (early TEM); optical section above the endothelium (top, non-transmigrated uropods)
# Chain of UniProt P14151 (P14151 39-372, stated change not applied): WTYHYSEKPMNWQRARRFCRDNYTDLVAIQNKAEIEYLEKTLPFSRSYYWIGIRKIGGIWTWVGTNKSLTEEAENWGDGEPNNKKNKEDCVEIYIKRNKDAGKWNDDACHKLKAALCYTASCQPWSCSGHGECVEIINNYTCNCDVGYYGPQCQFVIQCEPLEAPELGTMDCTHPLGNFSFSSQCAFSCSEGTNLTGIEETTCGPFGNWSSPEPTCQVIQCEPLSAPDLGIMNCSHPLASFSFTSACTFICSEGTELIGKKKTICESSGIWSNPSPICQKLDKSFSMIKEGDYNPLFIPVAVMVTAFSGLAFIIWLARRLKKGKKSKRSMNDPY
fold FRET efficiency against moesin with the same L-selectin (unchallenged cells) [1],"FRET efficiency (uropods, 25 min) [2]","FRET efficiency (pseudopods, 6 min) [3]","FRET efficiency (pseudopods, 25 min) [4]","FRET efficiency (uropods, 6 min) [5]",Substance
3.2 fold,7%,7.1%,6.5%,6.5%,ezrin–RFP (from UniProt P15311 1-586) (natural protein)
–,2%,2.4%,4.2%,2.7%,moesin–RFP (from UniProt P26041 1-577) (natural protein)
